Assay results published in the supplement of paper PMC9876800.

Tested on: peptide library, one residue held at a place counted from the S/T acceptor
Assay: relative phosphorylation of the sub-library (ratio to the mean residue at this position); higher = residue favoured
In short: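 Human or orthologue kinase constructs, purified and recombinant, were incubated under kinase-specific conditions in 384-well plates with biotinylated degenerate peptide sub-libraries. Each sub-library fixed one residue at one position around a central Ser/Thr. Incubations lasted 90 min with peptides at 50 μM and 50 μM ATP spiked with γ-32P-ATP, after which spots on streptavidin membranes were phosphorimaged and quantified by densitometry. Relative sub-library phosphorylation is a ratio to the mean residue at that position.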

Chain of EIF2AK4, construct: aa191-1024, human (Q9P2K8 191-1024, looked up): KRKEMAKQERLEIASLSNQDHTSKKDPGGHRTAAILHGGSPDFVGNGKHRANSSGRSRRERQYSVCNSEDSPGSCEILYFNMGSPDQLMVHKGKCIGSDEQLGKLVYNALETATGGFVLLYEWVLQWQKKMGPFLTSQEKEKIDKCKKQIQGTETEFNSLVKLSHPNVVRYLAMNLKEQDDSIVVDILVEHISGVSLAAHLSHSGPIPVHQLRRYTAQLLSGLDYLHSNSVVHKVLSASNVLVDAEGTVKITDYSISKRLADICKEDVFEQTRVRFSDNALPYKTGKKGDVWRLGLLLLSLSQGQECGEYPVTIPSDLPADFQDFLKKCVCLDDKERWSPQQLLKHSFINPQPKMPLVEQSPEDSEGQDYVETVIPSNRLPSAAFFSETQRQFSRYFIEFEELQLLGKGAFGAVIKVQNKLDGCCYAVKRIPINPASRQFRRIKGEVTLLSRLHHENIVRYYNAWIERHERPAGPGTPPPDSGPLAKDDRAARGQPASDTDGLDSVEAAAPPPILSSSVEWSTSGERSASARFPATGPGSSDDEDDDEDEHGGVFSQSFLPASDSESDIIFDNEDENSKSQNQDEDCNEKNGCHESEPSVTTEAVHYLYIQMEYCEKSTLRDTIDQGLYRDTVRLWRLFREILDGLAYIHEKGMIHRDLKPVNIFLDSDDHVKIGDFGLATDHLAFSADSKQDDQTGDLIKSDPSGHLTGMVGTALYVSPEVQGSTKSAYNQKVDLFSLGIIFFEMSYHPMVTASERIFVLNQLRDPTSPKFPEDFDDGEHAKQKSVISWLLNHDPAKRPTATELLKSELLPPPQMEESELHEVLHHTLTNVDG
Chain of NEK9, construct: Full length (D347-732), human (Q8TD19 whole entry, looked up): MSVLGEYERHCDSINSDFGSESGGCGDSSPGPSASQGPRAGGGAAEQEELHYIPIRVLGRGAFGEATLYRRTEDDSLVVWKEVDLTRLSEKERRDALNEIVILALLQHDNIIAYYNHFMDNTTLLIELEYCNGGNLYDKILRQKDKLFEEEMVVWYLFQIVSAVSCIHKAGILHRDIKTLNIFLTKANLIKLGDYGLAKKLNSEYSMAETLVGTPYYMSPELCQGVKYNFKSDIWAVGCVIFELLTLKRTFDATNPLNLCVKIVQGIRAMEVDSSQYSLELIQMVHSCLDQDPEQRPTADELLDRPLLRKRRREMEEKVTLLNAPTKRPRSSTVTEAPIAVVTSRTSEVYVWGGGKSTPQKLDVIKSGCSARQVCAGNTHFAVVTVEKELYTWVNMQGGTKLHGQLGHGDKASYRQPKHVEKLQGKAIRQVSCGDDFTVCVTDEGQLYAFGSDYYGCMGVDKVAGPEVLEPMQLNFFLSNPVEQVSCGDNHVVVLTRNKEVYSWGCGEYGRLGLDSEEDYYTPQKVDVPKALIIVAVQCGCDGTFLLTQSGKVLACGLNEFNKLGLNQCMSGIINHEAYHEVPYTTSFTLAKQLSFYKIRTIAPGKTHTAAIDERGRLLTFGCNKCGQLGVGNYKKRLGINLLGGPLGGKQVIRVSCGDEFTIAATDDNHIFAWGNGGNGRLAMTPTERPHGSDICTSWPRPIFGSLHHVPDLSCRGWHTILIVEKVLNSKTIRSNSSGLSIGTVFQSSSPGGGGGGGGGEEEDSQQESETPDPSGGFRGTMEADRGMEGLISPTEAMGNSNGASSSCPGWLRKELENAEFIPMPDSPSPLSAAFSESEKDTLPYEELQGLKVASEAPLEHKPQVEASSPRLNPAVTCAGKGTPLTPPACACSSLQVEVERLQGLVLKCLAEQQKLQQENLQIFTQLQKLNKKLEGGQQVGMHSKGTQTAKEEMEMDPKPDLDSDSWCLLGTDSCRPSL
Chain of MAP3K11, construct: aa99-398, human (Q16584 99-398, looked up): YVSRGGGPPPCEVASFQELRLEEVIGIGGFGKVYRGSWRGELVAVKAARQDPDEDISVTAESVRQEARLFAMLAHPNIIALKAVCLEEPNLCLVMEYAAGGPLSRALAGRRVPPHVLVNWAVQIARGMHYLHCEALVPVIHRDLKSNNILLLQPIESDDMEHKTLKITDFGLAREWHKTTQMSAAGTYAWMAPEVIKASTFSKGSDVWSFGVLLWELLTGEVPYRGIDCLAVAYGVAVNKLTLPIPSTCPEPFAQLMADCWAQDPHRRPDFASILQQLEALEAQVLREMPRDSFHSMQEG
Chain of RPS6KB1, construct: aa1-421, human (P23443 1-421, looked up): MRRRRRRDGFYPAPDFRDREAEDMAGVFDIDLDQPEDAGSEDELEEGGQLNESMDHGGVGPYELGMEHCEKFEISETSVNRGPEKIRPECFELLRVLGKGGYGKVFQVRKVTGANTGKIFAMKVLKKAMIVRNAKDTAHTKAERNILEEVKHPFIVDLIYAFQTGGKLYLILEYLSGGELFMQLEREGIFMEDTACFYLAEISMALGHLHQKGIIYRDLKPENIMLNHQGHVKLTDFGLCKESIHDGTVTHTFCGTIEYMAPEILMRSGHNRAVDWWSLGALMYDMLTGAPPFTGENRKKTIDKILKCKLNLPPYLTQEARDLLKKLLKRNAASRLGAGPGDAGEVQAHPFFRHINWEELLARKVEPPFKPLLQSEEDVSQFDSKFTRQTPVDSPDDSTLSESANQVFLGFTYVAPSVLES

NEK9, construct: Full length (D347-732), human (from UniProt Q8TD19)
relative phosphorylation
Details	at +1	at +2	at +3	at +4	at -1	at -2	at -3	at -4	at -5
A fixed	0.751	1.08	1.02	1.03	1	1.33	1.05	1.11	1.19
D fixed	0.268	0.44	0.594	0.754	0.889	1.27	0.574	1.06	1.04
E fixed	0.256	0.294	0.552	0.851	0.854	0.851	0.564	0.889	0.918
F fixed	1.37	0.606	1.04	0.775	0.843	1	1.43	0.9	1.07
G fixed	0.844	1.04	1.22	1.43	0.819	1.28	1.22	1.3	1.3
H fixed	0.912	1.42	1.14	1.18	1.21	1.08	0.953	1.09	1.02
I fixed	1.49	0.842	0.95	0.744	0.759	0.584	0.488	0.78	0.755
K fixed	0.951	1.69	1.12	1.25	1.12	0.543	0.73	1.01	1.01
L fixed	1.27	0.611	1.01	0.839	1.28	1.21	1.7	0.96	0.824
M fixed	1.54	0.782	0.956	0.899	1.39	1.53	2.32	1.12	0.953
N fixed	0.749	1.19	0.97	1.06	1.3	1.59	0.944	0.928	1.04
P fixed	0.209	0.57	0.921	1.12	0.426	0.667	0.937	1.12	0.991
Q fixed	1.14	0.892	0.943	1.01	1.12	0.996	0.808	0.85	0.764
R fixed	1.42	2.78	1.2	1.38	1.24	0.591	0.748	0.879	1.06
V fixed	1.3	0.894	0.887	0.696	0.688	0.461	0.407	0.688	0.895
W fixed	1.14	0.755	1.23	1.13	0.941	1.02	1.14	1.36	1.22
Y fixed	1.39	1.12	1.24	0.855	1.12	0.996	1	0.963	0.936
pThr fixed	0.614	0.45	0.557	0.85	0.364	0.573	0.816	0.901	0.836
pTyr fixed	0.517	0.399	0.599	0.722	1.01	0.91	0.826	0.787	0.886

MAP3K11, construct: aa99-398, human (from UniProt Q16584)
relative phosphorylation
Details	at +1	at +2	at +3	at +4	at -1	at -2	at -3	at -4	at -5
A fixed	0.654	0.524	0.71	0.779	0.713	0.983	1.06	1.02	1.21
D fixed	0.261	0.298	0.538	0.592	1.06	1.07	1.34	1.66	1.78
E fixed	0.424	0.285	0.445	0.549	0.891	0.89	1.35	1.46	1.24
F fixed	1.15	0.42	1.21	0.746	0.792	1.12	0.841	0.799	0.716
G fixed	0.664	0.458	1.1	1.03	0.453	1.06	1.36	1.34	1.39
H fixed	1.36	1.53	1.17	1.07	1.52	0.919	1.24	1.03	1.14
I fixed	0.625	0.392	0.562	0.605	0.522	0.769	0.428	0.529	0.508
K fixed	1.79	3.9	2.18	3.13	1.3	0.55	0.933	0.901	1.2
L fixed	0.71	0.407	1	0.589	0.946	0.738	0.654	0.722	0.781
M fixed	1.35	0.49	0.743	0.656	1.28	1.16	0.835	0.749	0.634
N fixed	0.699	0.666	0.971	0.834	1.16	0.949	1.1	0.947	0.996
P fixed	0.268	0.352	0.641	1.58	0.914	2.31	1.64	1.63	1.4
Q fixed	1.33	0.705	0.753	0.876	0.901	0.679	0.948	0.89	0.865
R fixed	2.38	4.19	1.9	2.01	1.38	0.678	0.898	0.918	0.993
V fixed	0.903	0.367	0.756	0.647	0.771	0.779	0.581	0.559	0.903
W fixed	1.29	0.729	1.16	0.527	0.928	1.16	0.754	0.924	0.522
Y fixed	1.14	1.29	1.17	0.784	1.48	1.18	1.04	0.92	0.711
pThr fixed	0.895	0.476	0.69	0.685	0.686	1.02	1.18	1.38	1.21
pTyr fixed	0.498	0.528	0.608	0.454	1.08	0.972	1.27	1.06	1.08

RPS6KB1, construct: aa1-421, human (from UniProt P23443)
relative phosphorylation
Details	at +1	at +2	at +3	at +4	at -1	at -2	at -3	at -4	at -5
A fixed	0.718	0.952	0.865	0.956	0.716	0.67	0.516	0.839	0.539
D fixed	0.458	0.433	0.664	0.933	0.802	0.231	0.188	0.433	0.362
E fixed	0.849	0.268	0.694	0.703	0.577	0.25	0.194	0.694	0.323
F fixed	2.01	0.855	1.22	0.909	0.878	0.823	0.421	0.73	0.721
G fixed	0.804	1.68	1.13	1.18	0.562	0.48	0.318	0.724	0.608
H fixed	1.19	1.65	1.45	1.38	1.28	1.14	0.949	1.11	1.21
I fixed	1.07	0.942	0.914	0.909	0.768	0.741	0.37	0.708	0.593
K fixed	0.932	0.794	0.982	0.943	1.35	2.56	1.45	2.08	1.92
L fixed	1.18	0.933	0.976	0.868	1.12	1.24	0.426	0.802	0.714
M fixed	1.39	1	0.794	0.863	1.19	0.87	0.452	0.947	0.529
N fixed	0.746	1.41	0.87	1.07	1.31	0.763	0.41	0.904	0.66
P fixed	0.328	0.816	0.955	1.26	1.2	0.289	0.297	0.794	0.645
Q fixed	0.717	0.707	1	0.966	0.957	0.841	0.541	1.05	0.934
R fixed	0.944	1.61	1.08	0.784	1.3	3.7	8.82	2.34	5.28
V fixed	1.19	1.06	0.772	0.926	1.01	0.596	0.362	1.01	0.562
W fixed	1.42	0.935	1.43	1.26	0.8	0.751	0.658	0.989	0.738
Y fixed	1.05	0.955	1.21	1.09	1.17	1.05	0.624	0.849	0.661
pThr fixed	0.905	0.467	0.716	1.36	0.384	0.275	0.231	0.55	0.429
pTyr fixed	1.39	0.696	0.954	1.14	1.77	0.451	0.348	0.598	0.579

EIF2AK4, construct: aa191-1024, human (from UniProt Q9P2K8)
relative phosphorylation
Details	at +1	at +2	at +3	at +4	at -1	at -2	at -3	at -4	at -5
A fixed	0.622	0.832	0.837	0.891	0.732	0.958	0.968	1.01	1.07
D fixed	0.335	1.1	0.504	0.75	1.22	2.28	1.62	1.47	1.12
E fixed	0.537	0.351	0.539	0.788	0.894	2.2	1.68	1.16	1.06
F fixed	2.06	0.645	0.948	0.945	0.836	1.18	0.891	0.86	1.07
G fixed	0.757	0.811	2.04	1.16	1.03	1.02	0.924	1.1	1.06
H fixed	1.04	1.8	1.02	0.969	1.12	0.964	0.901	1.18	1.17
I fixed	0.858	0.689	0.699	0.896	0.635	0.533	0.76	0.77	0.823
K fixed	0.724	0.717	1.11	1.08	0.78	0.555	0.695	0.945	1.04
L fixed	0.621	0.631	0.75	0.976	1.15	0.693	1.02	0.829	0.726
M fixed	1.68	0.59	0.826	0.973	1.11	1.09	1.08	0.846	0.825
N fixed	0.933	0.841	0.829	0.867	1.38	1.21	0.959	1.04	0.923
P fixed	0.162	0.475	1.9	1.07	0.629	0.643	0.699	0.825	0.824
Q fixed	1.28	0.611	0.774	0.811	1.26	0.968	0.976	0.997	0.881
R fixed	1.03	1.98	1.28	1.2	1.08	0.654	0.844	0.882	1.26
V fixed	0.996	0.773	0.74	0.849	0.961	0.52	0.727	0.838	0.926
W fixed	1.24	1.29	0.998	1.62	1.04	0.698	1.16	1.25	1.25
Y fixed	2.13	2.85	1.2	1.16	1.13	0.828	1.1	1	0.975
pThr fixed	0.715	0.592	0.686	0.736	0.803	1.16	0.969	1.03	0.724
pTyr fixed	0.656	0.789	0.83	1.55	1.43	0.652	1.01	0.867	0.881
